Data taken from patent US20160327558A1 (HELMHOLTZ ZENTRUM M NCHEN DEUTSCHES FORSCHUNGSZENTRUM F R …, published 2016).
Primed or numbered codes have the meaning given here. The star is where a group is joined. AOMK(5) = C-terminal Arg as acyloxymethyl ketone (dimethyl benzoic acid leaving group), Cc1cccc(C)c1C(=O)OCC(=O)[C@H](CCCNC(=N)N)N*; AOMK(4) = acyloxymethyl ketone (C-terminal covalent warhead); BODIPY(FL) = CC1=CC(C)=[N+]2C1=Cc1ccc(CCC(=O)*)n1[B-]2(F)F; FITC = O=C1OC2(c3ccc(O)cc3Oc3cc(O)ccc32)c2ccc(NC(=S)*)cc21; Butanoyl(4-ethynyl) = C#CCCCC(=O)*

What was measured:
[1] = target: T1, Human cathepsin B (human, UniProt P07858 80-333); assay: reduction of the labeled cathepsin B band and in vitro cathepsin B cleavage assay
Procedure: 0.2 ng cathepsin B together with probe 5, z-VRPR-FMK, mepazine or CA-074 was incubated with 1 mM zRR-AMC substrate for 2 h at 30° C. Assay was performed in 0.1 M sodium acetate pH 5.5, 10 mM DTT and 0.1 mM EDTA. Again, increase of AMC fluorescence is measured in a Synergy 2 Microplate Reader (Biotek).
Importantly, MALT1 was the only inducible band in extracts labeled with probe 5, although some background signals were obtained. […] As expected, Caspase 8 activity was not affected by the diagnostic inhibitors of MALT1 of the present invention. […] In agreement with cross-reaction of the diagnostic MALT1 inhibitors of the present invention and cathepsin B, preincubation of CA-074Me in Jurkat T cells completely abolished detection of the ˜30 kDa signal while inducible MALT1 labeling was unaffected (FIG. 3D). Thus, tetrapeptides that target the active site of MALT1 are also binding to cathepsin B. Since serine (LRSR) or proline (VRPR) at the P2 position is already poorly tolerated by cysteine cathepsins, improvement of the peptide scaffold may be very difficult.

[2] = target: T1, Human cathepsin B; assay: extracts of Jurkat T cells labeled with probe 5, in-gel fluorescence
[3] = target: T1, Human cathepsin B; assay: Jurkat whole cell extract labeled with probe 5 or probe 6, fluorescent scanning
Procedure: FIG. 6: Jurkat T cells were stimulated or not, lysed and whole cell extract was incubated with indicated concentrations of FITC conjugated probe 5 or BODIPY conjugated probe 6 and analyzed via fluorescent scanning. Probe 6 results in slightly higher active MALT1 labeling and cathepsin labeling (open circle) seems to be reduced.
Jurkat T cells (1-2×10⁷), primary human PBMCs or primary human T cells (0.25 or 1×10⁷) were lysed in 150 μl co-IP buffer without protease inhibitors. DLBCL (3×10⁷) were lysed in 250 μl buffer. After centrifugation (14000 rpm, 10 min, 4° C.), 100 μl extract (DLBCL: 200 μl) was stained with probe 5 or probe 6 (3 μM end) for 50 min at 29° C., mixed with 4× loading dye and boiled.

[4] = target: T2, FLAG-MALT1 wt (MALT1 Isoform B, overexpressed in Jurkat T cells) (human, UniProt Q9UDY8 2-824); assay: labeling after lysis and FLAG IP, in-gel fluorescence
T2 construct: also called overexpressed FLAG-MALT1 wt; not shown: N-terminal FLAG tag (or HA tag)
T2 sequence: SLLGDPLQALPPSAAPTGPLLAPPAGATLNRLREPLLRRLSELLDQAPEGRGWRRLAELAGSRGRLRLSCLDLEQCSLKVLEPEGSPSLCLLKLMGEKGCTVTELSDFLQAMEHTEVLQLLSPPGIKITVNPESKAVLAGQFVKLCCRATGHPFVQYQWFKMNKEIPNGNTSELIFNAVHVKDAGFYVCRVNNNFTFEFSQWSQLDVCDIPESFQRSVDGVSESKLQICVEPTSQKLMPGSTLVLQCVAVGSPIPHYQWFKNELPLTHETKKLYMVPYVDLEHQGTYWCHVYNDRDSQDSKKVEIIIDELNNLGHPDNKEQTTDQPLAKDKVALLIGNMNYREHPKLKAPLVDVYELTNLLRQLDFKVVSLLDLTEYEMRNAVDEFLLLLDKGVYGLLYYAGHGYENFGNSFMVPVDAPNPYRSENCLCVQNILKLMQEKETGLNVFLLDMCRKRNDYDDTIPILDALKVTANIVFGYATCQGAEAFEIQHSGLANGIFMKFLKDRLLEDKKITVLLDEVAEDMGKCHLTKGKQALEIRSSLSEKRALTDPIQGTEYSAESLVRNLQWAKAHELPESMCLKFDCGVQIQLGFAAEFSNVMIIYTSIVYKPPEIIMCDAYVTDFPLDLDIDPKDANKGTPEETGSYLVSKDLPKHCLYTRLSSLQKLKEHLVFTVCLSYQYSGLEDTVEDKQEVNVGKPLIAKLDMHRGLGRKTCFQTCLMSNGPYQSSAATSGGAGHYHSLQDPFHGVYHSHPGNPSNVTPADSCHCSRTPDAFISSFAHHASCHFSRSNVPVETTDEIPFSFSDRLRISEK
Procedure: (§1) Jurkat T cells, transfected with active FLAG-[…] wt or active site mutant C464A, were stained after lysis and IP with probe 2, pre-clicked to TAMRA. Analysis was done by fluorescence staining.
(§2) Cells were lysed in 500 μl co-IP buffer without protease inhibitors (25 mM hepes pH 7.5, 150 mM NaCl, 0.2% NP-40, 10% glycerol, 1 mM DTT, 10 mM sodium fluoride, 8 mM β-glycerophosphate and 300 μM sodium vanadate), centrifuged (14000 rpm, 10 min, 4° C.) and overexpressed FLAG MALT1 was immunoprecipitated by FLAG (M2) antibody for 3 hours at 4° C. PGS was added for 1 h at 4° C., precipitate was washed 2× with co-IP buffer and 1× with 50 mM hepes pH 7.4. Precipitated MALT1 was incubated with 0.3 μM pre-clicked probe 2 (in 20 μl 50 mM hepes pH 7.4) for 50 min at 29° C., mixed with 4× loading dye and boiled for 3 min. After protein separation by SDS PAGE, staining with diagnostic inhibitor was detected by Typhoon Fluorescence Scanner (FITC laser 488 nm/filter 526 SP; TAMRA laser 532 nm/filter 580 BP).

[5] = target: T3, FLAG-MALT1 active site mutant C464A (C453A in Isoform B) (human, UniProt Q9UDY8 2-824); assay: labeling after FLAG IP, SDS PAGE, fluorescence scanning
T3 construct: Isoform B with C453A; also called MALT1 mutant; not shown: N-terminal FLAG tag (or HA tag)
T3 sequence: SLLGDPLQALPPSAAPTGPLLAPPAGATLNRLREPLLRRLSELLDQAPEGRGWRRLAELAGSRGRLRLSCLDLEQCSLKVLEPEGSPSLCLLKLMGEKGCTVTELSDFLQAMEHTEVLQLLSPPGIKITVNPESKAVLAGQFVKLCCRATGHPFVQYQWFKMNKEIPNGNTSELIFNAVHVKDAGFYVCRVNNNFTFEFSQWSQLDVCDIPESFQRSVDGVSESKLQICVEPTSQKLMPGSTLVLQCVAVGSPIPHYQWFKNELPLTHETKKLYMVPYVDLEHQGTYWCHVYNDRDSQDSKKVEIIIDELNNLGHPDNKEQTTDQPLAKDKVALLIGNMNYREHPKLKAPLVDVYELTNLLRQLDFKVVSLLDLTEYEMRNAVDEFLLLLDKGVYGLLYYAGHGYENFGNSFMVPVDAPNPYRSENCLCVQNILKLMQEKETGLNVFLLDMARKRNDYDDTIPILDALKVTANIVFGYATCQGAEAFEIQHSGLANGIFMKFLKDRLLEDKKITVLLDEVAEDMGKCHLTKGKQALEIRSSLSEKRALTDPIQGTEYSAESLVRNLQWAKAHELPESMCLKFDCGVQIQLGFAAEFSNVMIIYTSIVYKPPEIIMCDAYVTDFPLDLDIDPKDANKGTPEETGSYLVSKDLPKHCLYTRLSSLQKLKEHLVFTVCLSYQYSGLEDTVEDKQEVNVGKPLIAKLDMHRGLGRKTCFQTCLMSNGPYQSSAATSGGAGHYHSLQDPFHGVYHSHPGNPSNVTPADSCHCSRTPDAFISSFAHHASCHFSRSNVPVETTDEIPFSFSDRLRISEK
Procedure: as §1, §2

B1: z-VRPR-FMK (peptide)
peptide: VRPR
modifications: not fully specified; N-terminal z group; C-terminal Arg as fluoromethylketone (FMK)
notes: Bought (Alexis Biochemicals)
binding result [1]: binds

B2: probe 5 (FITC-LRSR-AOMK) (peptide)
peptide: {FITC}-LRSR-{AOMK(4)}
notes: Covalent activity-based probe; also called FITC conjugated probe 5
binding result [2]: binds

B3: probe 6 ((BODIPY-FL)-LRSR-AOMK) (peptide)
peptide: {BODIPY(FL)}-LRSR-{AOMK(5)}
SMILES: CC1=CC(C)=[N+]2C1=Cc1ccc(CCC(=O)N[C@@H](CC(C)C)C(=O)N[C@@H](CCCNC(=N)N)C(=O)N[C@@H](CO)C(=O)N[C@@H](CCCNC(=N)N)C(=O)N[C@@H](CCCNC(=N)N)C(=O)COC(=O)c3c(C)cccc3C)n1[B-]2(F)F
notes: Covalent activity-based probe; also called BODIPY conjugated probe 6; BODIPY probe 6
binding result [3]: binds

B4: probe 2 (alkyne-LRSR-AOMK), pre-clicked to TAMRA (peptide)
peptide: {N‑TAMRA‑3‑aminopropylazide (click)-Butanoyl(4-ethynyl)}-LRSR-{AOMK(5)}
notes: Covalent activity-based probe; also called TAMRA-LRSR-AOMK
binding result [4]: binds
binding result [5]: no binding (tested: 0.3 µM pre-clicked probe 2)
